Our source for the Nav1.7 inhibition (%), automated patch clamp on HEK cells, antibody and inhibition of Nav1.7 currents, automated patch clamp on HEK cells, antibody values is US20120259096A1.

Test [1] has as its target human Nav1.7 channel (type IX voltage-gated sodium channel alpha subunit) (human) (UniProt Q15858). As to the kind of experiment: cell-based or functional assay.
Test [2] concerns the target recombinant rat Nav1.7 channels expressed in HEK cells (rat) (UniProt O08562). The experiment in a line: cell-based or functional assay.

Sequence of recombinant rat Nav1.7 channels expressed in HEK cells (rat) (O08562 whole entry): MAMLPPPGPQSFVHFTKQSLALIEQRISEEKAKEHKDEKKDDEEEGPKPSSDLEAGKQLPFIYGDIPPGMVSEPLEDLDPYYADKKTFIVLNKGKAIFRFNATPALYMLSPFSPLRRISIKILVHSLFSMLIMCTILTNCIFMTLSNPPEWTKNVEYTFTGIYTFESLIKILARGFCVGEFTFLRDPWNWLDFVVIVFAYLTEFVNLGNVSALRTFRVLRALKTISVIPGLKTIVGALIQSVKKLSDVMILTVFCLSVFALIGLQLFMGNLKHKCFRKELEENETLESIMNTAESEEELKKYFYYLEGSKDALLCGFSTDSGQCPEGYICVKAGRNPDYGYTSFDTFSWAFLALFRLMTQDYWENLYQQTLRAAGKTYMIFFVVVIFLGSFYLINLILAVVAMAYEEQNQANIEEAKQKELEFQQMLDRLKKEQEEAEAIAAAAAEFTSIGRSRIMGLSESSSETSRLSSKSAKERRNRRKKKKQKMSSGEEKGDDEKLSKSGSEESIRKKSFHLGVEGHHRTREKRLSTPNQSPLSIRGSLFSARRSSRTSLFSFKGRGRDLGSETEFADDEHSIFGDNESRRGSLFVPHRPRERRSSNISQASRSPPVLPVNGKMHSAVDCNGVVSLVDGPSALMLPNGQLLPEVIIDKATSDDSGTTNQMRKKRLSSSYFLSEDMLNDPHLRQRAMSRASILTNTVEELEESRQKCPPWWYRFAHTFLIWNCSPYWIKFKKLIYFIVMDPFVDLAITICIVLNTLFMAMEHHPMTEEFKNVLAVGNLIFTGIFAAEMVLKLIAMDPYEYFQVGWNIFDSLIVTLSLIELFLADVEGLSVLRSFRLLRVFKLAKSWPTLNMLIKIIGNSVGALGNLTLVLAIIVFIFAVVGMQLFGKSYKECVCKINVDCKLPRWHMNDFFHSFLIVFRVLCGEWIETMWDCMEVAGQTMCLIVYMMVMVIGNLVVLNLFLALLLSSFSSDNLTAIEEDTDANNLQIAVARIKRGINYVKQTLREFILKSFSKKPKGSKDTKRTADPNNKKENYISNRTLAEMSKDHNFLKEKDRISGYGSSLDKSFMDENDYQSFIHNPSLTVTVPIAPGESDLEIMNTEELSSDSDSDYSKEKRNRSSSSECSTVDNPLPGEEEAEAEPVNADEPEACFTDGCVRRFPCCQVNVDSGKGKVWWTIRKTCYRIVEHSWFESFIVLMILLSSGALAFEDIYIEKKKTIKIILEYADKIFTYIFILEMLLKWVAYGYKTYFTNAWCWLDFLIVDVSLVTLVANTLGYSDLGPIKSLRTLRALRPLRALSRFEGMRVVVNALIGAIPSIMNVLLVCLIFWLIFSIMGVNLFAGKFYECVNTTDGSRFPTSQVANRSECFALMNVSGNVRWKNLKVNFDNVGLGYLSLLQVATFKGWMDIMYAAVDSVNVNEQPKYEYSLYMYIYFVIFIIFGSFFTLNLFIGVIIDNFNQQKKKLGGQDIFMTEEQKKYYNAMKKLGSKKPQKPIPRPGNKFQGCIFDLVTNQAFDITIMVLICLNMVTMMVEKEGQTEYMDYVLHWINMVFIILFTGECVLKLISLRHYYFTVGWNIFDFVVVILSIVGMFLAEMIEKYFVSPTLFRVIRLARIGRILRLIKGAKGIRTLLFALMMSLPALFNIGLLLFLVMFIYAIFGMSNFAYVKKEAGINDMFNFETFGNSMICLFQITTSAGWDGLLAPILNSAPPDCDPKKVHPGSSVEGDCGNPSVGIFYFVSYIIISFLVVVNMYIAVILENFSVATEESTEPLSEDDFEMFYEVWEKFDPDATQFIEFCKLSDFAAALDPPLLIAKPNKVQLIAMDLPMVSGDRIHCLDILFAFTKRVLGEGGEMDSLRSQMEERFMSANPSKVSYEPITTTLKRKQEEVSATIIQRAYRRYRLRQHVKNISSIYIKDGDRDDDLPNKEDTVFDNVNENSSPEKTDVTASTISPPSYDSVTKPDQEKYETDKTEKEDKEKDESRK

B1: CA167_00983 (antibody, from another filing, rabbit IgG1, V domains shown)
VH: QSVEESGGRLVTPGTPLTLTCTVSGFSLSNYAMSWVRQAPGKGLEWIGIIGKSGSTAYASWAKGRFTISRTSTTVDLEITSPTTEDTATYFCVRFVLLWGPGTLVTVS
VL: AQVLTQTASPVSAAVGGTVTINCQSSQSVYKNNDLAWYQQKPGQPPKLLIYYASTLASGVSSRFKGSGSGTEFTLTISDAQCDDAATYYCLGSYDCSSADCNAFGGGTKVVVK
On to B1, for which, in test [1], the Nav1.7 inhibition (%), automated patch clamp on HEK cells, antibody at 25 µg/ml worked out at 41%.

B2: CA167_01080 (antibody, from another filing, rabbit IgG1, V domains shown)
VH: QSLEESGGRLVTPETPLTLTCTASGIDLSKWPMTWVRQAPGKGLEWIGIIGRSGSTNYASWAKGRFTISKTSTTVDLKMTSPTTEDTATYFCARGGSYYDLWGQGTLVTVS
VL: AQVLTQTASPVSAAVGNTVTITCQSSQSVWKNNDLSWYQQKLGQPPKLLIYYASTLASGVSSRFKASGSGTQFTLTISDVQCDDAGTYYCVGSYDCSSADCNAFGGGTKVVVK
Take B2: the Nav1.7 inhibition (%), automated patch clamp on HEK cells, antibody at 25 µg/ml in test [1] was determined as 46%. Further, in test [2], the inhibition of Nav1.7 currents, automated patch clamp on HEK cells, antibody at 25 µg/ml stood at 26%.
